According to the supplement of paper PMC12855868:

B1: library; numbered along this chain (parent)
chain: MAAAGGARLLRAASAVLGGPAGRWLHHAGSRAGSSGLLRNRGPGGSAEASRSLSVSARARSSSEDKITVHFINRDGETLTTKGKVGDSLLDVVVENNLDIDGFGACEGTLACSTCHLIFEDHIYEKLDAITDEENDMLDLAYGLTDRSRLGCQICLTKSMDNMTVRVPETVADARQSIDVGKTS

Variants of: B1
Experiment: scaled log2 fold change in cell abundance, elesclomol vs control (0 = silent mean, 1 = nonsense mean) (scaled log2 ratio); higher = higher viability under elesclomol (loss of FDX1 cuproptosis function)
Conditions: glucose 10 mM
[1] = with ABC1 FDX1 KO, elesclomol 5 nM, 14 days
[2] = with HEK293T FDX1 KO, elesclomol 40 nM, 11 days
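Note: variant abundance is its share of total variant reads in each endpoint sample, from next-generation sequencing of the integrated ORF PCR-amplified out of genomic DNA.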

Variant | scaled log2 fold change [1] | scaled log2 fold change [2]
MAAAGGARLLRAASAVLGGPAGRWLHHAGSRAGSSGLLRNRGPGGSAEASRSLSVSARARSSSEDKITVHFINRDGETLTTKGKVGDSLLDVVVENNLDIDGFGACEGTLAPSTCHLIFEDHIYEKLDAITDEENDMLDLAYGLTDRSRLGCQICLTKSMDNMTVRVPETVADARQSIDVGKTS [C112P] | 1.17 | 0.87
MAAAGGARLLRAASAVLGGPAGRWLHHAGSRAGSSGLLRNRGPGGSAEASRSLSVSARARSSSEDKITVHFINRDGETLTTKGKVGDSLLDVVVENNLDIDGFGACEGTLAKSTCHLIFEDHIYEKLDAITDEENDMLDLAYGLTDRSRLGCQICLTKSMDNMTVRVPETVADARQSIDVGKTS [C112K] | 1.12 | 1.35
MAAAGGARLLRAASAVLGGPAGRWLHHAGSRAGSSGLLRNRGPGGSAEASRSLSVSARARSSSEDKITVHFINRDGETLTTKGKVGDSLLDVVVENNLDIDGFGACEGTLAQSTCHLIFEDHIYEKLDAITDEENDMLDLAYGLTDRSRLGCQICLTKSMDNMTVRVPETVADARQSIDVGKTS [C112Q] | 1.01 | 1.1
MAAAGGARLLRAASAVLGGPAGRWLHHAGSRAGSSGLLRNRGPGGSAEASRSLSVSARARSSSEDKITVHFINRDGETLTTKGKVGDSLLDVVVENNLDIDGFGACEGTLANSTCHLIFEDHIYEKLDAITDEENDMLDLAYGLTDRSRLGCQICLTKSMDNMTVRVPETVADARQSIDVGKTS [C112N] | 0.953 | 1.22
MAAAGGARLLRAASAVLGGPAGRWLHHAGSRAGSSGLLRNRGPGGSAEASRSLSVSARARSSSEDKITVHFINRDGETLTTKGKVGDSLLDVVVENNLDIDGFGACEGTLAHSTCHLIFEDHIYEKLDAITDEENDMLDLAYGLTDRSRLGCQICLTKSMDNMTVRVPETVADARQSIDVGKTS [C112H] | 0.978 | 1.42
MAAAGGARLLRAASAVLGGPAGRWLHHAGSRAGSSGLLRNRGPGGSAEASRSLSVSARARSSSEDKITVHFINRDGETLTTKGKVGDSLLDVVVENNLDIDGFGACEGTLALSTCHLIFEDHIYEKLDAITDEENDMLDLAYGLTDRSRLGCQICLTKSMDNMTVRVPETVADARQSIDVGKTS [C112L] | 0.979 | 1.26
MAAAGGARLLRAASAVLGGPAGRWLHHAGSRAGSSGLLRNRGPGGSAEASRSLSVSARARSSSEDKITVHFINRDGETLTTKGKVGDSLLDVVVENNLDIDGFGACEGTLAMSTCHLIFEDHIYEKLDAITDEENDMLDLAYGLTDRSRLGCQICLTKSMDNMTVRVPETVADARQSIDVGKTS [C112M] | 1.09 | 1.24
MAAAGGARLLRAASAVLGGPAGRWLHHAGSRAGSSGLLRNRGPGGSAEASRSLSVSARARSSSEDKITVHFINRDGETLTTKGKVGDSLLDVVVENNLDIDGFGACEGTLAISTCHLIFEDHIYEKLDAITDEENDMLDLAYGLTDRSRLGCQICLTKSMDNMTVRVPETVADARQSIDVGKTS [C112I] | 0.989 | 1.33
